{
  "source": "patent US20250002610A1",
  "about": "(Genmab, published 2025)",
  "binders": {"B1": {"name": "BisG1-FAPα-FERL/DR4-FERR (bispecific antibody, human IgG1, kappa, lambda)", "heavy 1": "EVQLLESGGGLVQPGGSPRLSCEASGFTFSSYALSWVRQAPGKGLEWVSAISGSGGGRYYADSVKGRFTISRDNSKNTLFLQMNSLRAEDTAVYYCAKEGYSSSGTYWDHWGQGTLVTVSSASTKGPSVFPLAPSSKSTSGGTAALGCLVKDYFPEPVTVSWNSGALTSGVHTFPAVLQSSGLYSLSSVVTVPSSSLGTQTYICNVNHKPSNTKVDKRVEPKSCDKTHTCPPCPAPEFERGPSVFLFPPKPKDTLMISRTPEVTCVVVDVSHEDPEVKFNWYVDGVEVHNAKTKPREEQYNSTYRVVSVLTVLHQDWLNGKEYKCKVSNKALPAPIEKTISKAKGQPREPQVYTLPPSREEMTKNQVSLTCLVKGFYPSDIAVEWESNGQPENNYKTTPPVLDSDGSFLLYSKLTVDKSRWQQGNVFSCSVMHEALHNHYTQKSLSLSPG", "light 1": "AIQMTQSPSSVSASVGDRVTITCRASQGVSSWLAWYQQKPGRAPKLLIYVASTLQSGVPSRFSGSGSGTDFTLTINSLQPEDFATYYCQQANSFPPTFGQGTRLEMKRTVAAPSVFIFPPSDEQLKSGTASVVCLLNNFYPREAKVQWKVDNALQSGNSQESVTEQDSKDSTYSLSSTLTLSKADYEKHKVYACEVTHQGLSSPVTKSFNRGEC", "heavy 2": "QVQLQESGPGLVKPSGTLSLTCAVSGGSISSYSWWSWIRQPPGKGLEWIGELYHSGSTNYNPSLKSRVTISVDKSKNQFSLKLRSVTAADTAVYYCVRGVATIDYWGQGTLVTVSSASTKGPSVFPLAPSSKSTSGGTAALGCLVKDYFPEPVTVSWNSGALTSGVHTFPAVLQSSGLYSLSSVVTVPSSSLGTQTYICNVNHKPSNTKVDKRVEPKSCDKTHTCPPCPAPEFERGPSVFLFPPKPKDTLMISRTPEVTCVVVDVSHEDPEVKFNWYVDGVEVHNAKTKPREEQYNSTYRVVSVLTVLHQDWLNGKEYKCKVSNKALPAPIEKTISKAKGQPREPQVYTLPPSREEMTKNQVSLTCLVKGFYPSDIAVEWESNGQPENNYKTTPPVLDSDGSFFLYSRLTVDKSRWQQGNVFSCSVMHEALHNHYTQKSLSLSPG", "light 2": "QSALTQPPSASGSPGQSVTISCTGTSSDVGGYNFVSWYQQDPGKAPKLLIYEVTKRPSGVPDRFSGSKSGNTASLTVSGLQAEDEADYYCSSYAGSNNVMFGGGTKLTVLGQPKAAPSVTLFPPSSEELQANKATLVCLISDFYPGAVTVAWKADSSPVKAGVETTTPSKQSNNKYAASSYLSLTPEQWKSHRSYSCQVTHEGSTVEKTVAPTECS", "notes": "Human IgG1 bispecific made by controlled Fab-arm exchange of IgG1-FAPα-FERL and IgG1-DR4-FERR; monovalent for FAPα and for DR4; also called GEN1057"}, "B2": {"name": "BisG1-b12-FERL/DR4-FERR (bispecific antibody, human IgG1, kappa, lambda)", "heavy 1": "QVQLVQSGAEVKKPGASVKVSCQASGYRFSNFVIHWVRQAPGQRFEWMGWINPYNGNKEFSAKFQDRVTFTADTSANTAYMELRSLRSADTAVYYCARVGPYSWDDSPQDNYYMDVWGKGTTVIVSSASTKGPSVFPLAPSSKSTSGGTAALGCLVKDYFPEPVTVSWNSGALTSGVHTFPAVLQSSGLYSLSSVVTVPSSSLGTQTYICNVNHKPSNTKVDKRVEPKSCDKTHTCPPCPAPEFERGPSVFLFPPKPKDTLMISRTPEVTCVVVDVSHEDPEVKFNWYVDGVEVHNAKTKPREEQYNSTYRVVSVLTVLHQDWLNGKEYKCKVSNKALPAPIEKTISKAKGQPREPQVYTLPPSREEMTKNQVSLTCLVKGFYPSDIAVEWESNGQPENNYKTTPPVLDSDGSFLLYSKLTVDKSRWQQGNVFSCSVMHEALHNHYTQKSLSLSPG", "light 1": "EIVLTQSPGTLSLSPGERATFSCRSSHSIRSRRVAWYQHKPGQAPRLVIHGVSNRASGISDRFSGSGSGTDFTLTITRVEPEDFALYYCQVYGASSYTFGQGTKLERKRTVAAPSVFIFPPSDEQLKSGTASVVCLLNNFYPREAKVQWKVDNALQSGNSQESVTEQDSKDSTYSLSSTLTLSKADYEKHKVYACEVTHQGLSSPVTKSFNRGEC", "heavy 2": "B1 heavy 2", "light 2": "B1 light 2", "notes": "Fab-arm exchange of IgG1-b12-FERL and IgG1-DR4-FERR; also called bsIgG1-ctrl-FERLxDR4-FERR"}},
  "key": {"human DR4HsECD-FcHisCtag": {"target": "T1, human DR4HsECD-FcHisCtag (human)", "T1 construct": "also called recombinant human DR4", "T1 sequence (chain, as listed by the source limits assumed)": "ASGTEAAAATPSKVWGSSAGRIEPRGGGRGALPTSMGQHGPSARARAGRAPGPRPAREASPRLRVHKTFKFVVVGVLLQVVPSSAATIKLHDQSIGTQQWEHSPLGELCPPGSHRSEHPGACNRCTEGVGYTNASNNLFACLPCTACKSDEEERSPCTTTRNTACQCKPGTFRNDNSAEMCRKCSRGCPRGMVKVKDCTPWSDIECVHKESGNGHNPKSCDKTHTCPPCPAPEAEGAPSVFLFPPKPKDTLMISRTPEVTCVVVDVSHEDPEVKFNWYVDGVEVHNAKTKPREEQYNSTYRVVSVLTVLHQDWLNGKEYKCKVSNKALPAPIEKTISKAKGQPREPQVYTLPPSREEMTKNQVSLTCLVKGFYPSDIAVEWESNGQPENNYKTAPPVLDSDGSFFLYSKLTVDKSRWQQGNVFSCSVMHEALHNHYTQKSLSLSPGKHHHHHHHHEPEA", "assay": "BLI (Octet), antigen captured on anti-Penta-HIS sensors, average of three experiments", "protocol": "(§1) Experiments were carried out while shaking at 1,000 RPM at 30° C. Amine Reactive 2nd Generation (AR2G) biosensors (Sartorius, Cat #18-5092) were activated by reaction with 20 mM EDC (N-(3-Dimethylaminopropyl)-N′-ethylcarbodiimide hydrochloride) (Sigma-Aldrich, Cat #03449) and 10 mM s-NHS (N-hydroxysulfosuccinimide sodium salt) (Sigma-Aldrich, Cat #56485) for 300 s. The activated AR2G sensors were loaded with 2.5 μg/mL His-tagged recombinant Human FAPα (Acro Biosystems, Cat #FAP-H5244-100ug) in 10 mM Sodium Acetate pH 5.0 (Sartorius, Cat #18-1069) or 2.5 μg/mL His-tagged recombinant Cynomolgus FAPα (Acro Biosystems, Cat #FAP-C52H3-100ug) in 10 mM Sodium Acetate pH 5.0 for 600 s and quenched with 1 M ethanolamine pH 8.5 (Sartorius Cat #18-1071) for 300 s. After a baseline measurement in Sample Diluent (1000 s; Sartorius, Cat #18-1104), the association (100 s) and dissociation (4,000 s) of functionally monovalent antibody was determined using a concentration range of 0.78-800 nM with two-fold dilution steps in Sample Diluent. The molecular mass of the antibodies used for the calculations was calculated from the sequences.\n(§2) The binding affinity of BisG1-FAPα-FERL/DR4-FERR, BisG1-b12-FERL/DR4-FERR and control BisG1-FAPα-FERL/b12-FERR to recombinant human and cynomolgus monkey DR4 protein was determined using label-free biolayer interferometry on an Octet HTX instrument (Sartorius).\n(§3) The protocol detailed in Example 5 was used with the following differences: anti-Penta-HIS biosensors (Sartorius, Cat #18-5120) were used; the sensors were preconditioned by exposure to 10 mM glycine (Sigma-Aldrich, Cat #15527) buffer pH 1.5 for 5 s, followed by neutralization in Sample Diluent (Sartorius, Cat #18-1104) for 5 s; both steps were repeated 2 times; the sensors were loaded with 50 nM human DR4HsECD-FcHisCtag (SEQ ID NO: 66), or cynomolgus DR4MfECD-FcHisCtag (SEQ ID NO: 67), for 600 s; the dissociation time was 1,000 s; The window of interest for the dissociation time was set at 100 s for the cynomolgus antigen and at 1,000 s for the human antigen."}, "[1]": {"target": "T2, cynomolgus DR4MfECD-FcHisCtag (cynomolgus monkey)", "T2 construct": "also called recombinant cynomolgus monkey DR4", "T2 chain": "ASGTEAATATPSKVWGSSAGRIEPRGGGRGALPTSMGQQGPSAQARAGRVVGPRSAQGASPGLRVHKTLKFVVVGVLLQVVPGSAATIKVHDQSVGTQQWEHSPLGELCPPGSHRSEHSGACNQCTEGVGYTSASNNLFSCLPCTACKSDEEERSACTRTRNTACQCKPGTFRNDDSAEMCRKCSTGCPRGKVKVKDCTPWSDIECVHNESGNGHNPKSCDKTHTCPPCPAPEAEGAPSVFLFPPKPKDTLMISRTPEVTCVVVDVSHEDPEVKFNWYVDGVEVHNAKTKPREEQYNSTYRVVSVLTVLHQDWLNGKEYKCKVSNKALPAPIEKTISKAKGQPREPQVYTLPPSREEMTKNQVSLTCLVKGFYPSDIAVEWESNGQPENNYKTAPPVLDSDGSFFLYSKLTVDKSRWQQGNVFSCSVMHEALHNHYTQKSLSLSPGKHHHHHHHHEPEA", "assay": "BLI (Octet), antigen captured on anti-Penta-HIS sensors, average of three experiments", "protocol": "as §1, §2, §3"}},
  "data": [
    {"binder": "B1", "values": [
      {"measurement": "Kd", "setting": "human DR4HsECD-FcHisCtag", "result": 0.39, "unit": "nM"},
      {"measurement": "koff", "setting": "human DR4HsECD-FcHisCtag", "result": 0.00012, "unit": "s⁻¹"},
      {"measurement": "kon", "setting": "human DR4HsECD-FcHisCtag", "result": 320000, "unit": "M⁻¹ s⁻¹"},
      {"measurement": "Kd", "setting": "[1]", "result": 290, "unit": "nM"},
      {"measurement": "koff", "setting": "[1]", "result": 0.008, "unit": "s⁻¹"},
      {"measurement": "kon", "setting": "[1]", "result": 28000, "unit": "M⁻¹ s⁻¹"}
    ]},
    {"binder": "B2", "values": [
      {"measurement": "Kd", "setting": "human DR4HsECD-FcHisCtag", "result": 0.32, "unit": "nM"},
      {"measurement": "koff", "setting": "human DR4HsECD-FcHisCtag", "result": 0.0001, "unit": "s⁻¹"},
      {"measurement": "kon", "setting": "human DR4HsECD-FcHisCtag", "result": 330000, "unit": "M⁻¹ s⁻¹"},
      {"measurement": "Kd", "setting": "[1]", "result": 260, "unit": "nM"},
      {"measurement": "koff", "setting": "[1]", "result": 0.0082, "unit": "s⁻¹"},
      {"measurement": "kon", "setting": "[1]", "result": 31000, "unit": "M⁻¹ s⁻¹"}
    ]}
  ]
}
